{
  "source": "patent US20140322315A1",
  "about": "“CYSTEAMINE AND/OR CYSTAMINE FOR TREATING ISCHEMIC INJURY” (The Regents of the University of California, priority 2011, published 2014)",
  "origin": "cited, not measured here",
  "molecules": {"B1": {"name": "tPA: tissue plasminogen activator, FDA approved 1996 as therapy for acute ischemic stroke (protein, UniProt P00750 36-562, looked up)", "Tissue-type plasminogen …": "SYQVICRDEKTQMIYQQHQSWLRPVLRSNRVEYCWCNSGRAQCHSVPVKSCSEPRCFNGGTCQQALYFSDFVCQCPEGFAGKCCEIDTRATCYEDQGISYRGTWSTAESGAECTNWNSSALAQKPYSGRRPDAIRLGLGNHNYCRNPDRDSKPWCYVFKAGKYSSEFCSTPACSEGNSDCYFGNGSAYRGTHSLTESGASCLPWNSMILIGKVYTAQNPSAQALGLGKHNYCRNPDGDAKPWCHVLKNRRLTWEYCDVPSCSTCGLRQYSQPQFRIKGGLFADIASHPWQAAIFAKHRRSPGERFLCGGILISSCWILSAAHCFQERFPPHHLTVILGRTYRVVPGEEEQKFEVEKYIVHKEFDDDTYDNDIALLQLKSDSSRCAQESSVVRTVCLPPADLQLPDWTECELSGYGKHEALSPFYSERLKEAHVRLYPSSRCTSQHLLNRTVTDNMLCAGDTRSGGPQANLHDACQGDSGGPLVCLNDGRMTLVGIISWGLGCGQKDVPGVYTKVTNYLDWIRDNMRP"}},
  "system": "acute ischemic stroke",
  "data": [
    {"molecule": "B1", "values": [
      {"measurement": "improvement in clinical outcome", "setting": "some, but not all, of the controlled trials in acute ischemic stroke", "result": "30-55%"},
      {"measurement": "complete resolution of symptoms, share of the time", "setting": "thrombolytic therapy with tPA", "result": "less than 40%"}
    ]}
  ]
}
